These results are taken from PMC5387316, “Distinctive molecular and biochemical characteristics of a glycoside hydrolase family 20 β-N-acetylglucosaminidase and salt tolerance” (BMC Biotechnology, 2017).

The target in one series is T1, rHJ5Nag (Microbacterium sp. HJ5, UniProt A0A1W6AQA7).
T1 construct: pEASY-E2 in E. coli BL21 (DE3), purified on Ni-NTA
T1 sequence (A0A1W6AQA7 21-535): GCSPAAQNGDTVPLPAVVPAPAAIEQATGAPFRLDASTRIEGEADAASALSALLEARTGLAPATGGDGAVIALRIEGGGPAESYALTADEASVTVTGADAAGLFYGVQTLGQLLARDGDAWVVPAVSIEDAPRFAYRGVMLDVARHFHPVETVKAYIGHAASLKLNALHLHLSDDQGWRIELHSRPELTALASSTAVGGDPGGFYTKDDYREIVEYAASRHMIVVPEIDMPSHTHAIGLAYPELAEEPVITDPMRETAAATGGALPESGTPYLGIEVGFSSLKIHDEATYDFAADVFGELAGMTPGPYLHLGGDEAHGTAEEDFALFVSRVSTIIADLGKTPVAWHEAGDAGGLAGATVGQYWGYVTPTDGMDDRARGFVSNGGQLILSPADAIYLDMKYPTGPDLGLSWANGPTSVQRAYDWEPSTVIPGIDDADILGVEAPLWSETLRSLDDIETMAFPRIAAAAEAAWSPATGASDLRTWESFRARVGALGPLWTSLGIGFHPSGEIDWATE
The experiment in a line: pNP release assay, nonlinear mixed-model inhibition fit. It is filed as biochemical. The following applies: 0.1-1.2 mM pNPGlcNAc; pH 6.0; 45 °C; mixed competitive and noncompetitive inhibition (alpha 3.412); product inhibitor at 5.0 and 10.0 mM.

Substrate in series [1]: CC(=O)N[C@H]1[C@H](Oc2ccc([N+](=O)[O-])cc2)O[C@H](CO)[C@@H](O)[C@@H]1O
The experiment in a line: pNP release assay, nonlinear Michaelis-Menten fit. To be noted: pH 6.0, 45 °C, McIlvaine buffer, without added GlcNAc. It is filed as biochemical, Microbacterium sp. HJ5.

As usually defined, the Ki is a dissociation constant, usually derived from enzyme kinetics or from competition with a known ligand. High values mean weaker binding, low ones tighter binding. For the molecule `CC(=O)N[C@H]1C(O)O[C@H](CO)[C@@H](O)[C@@H]1O` (stereo partly drawn) [N-acetylglucosamine], the affinity at rHJ5Nag corresponds to a Ki of 14.6 mM.

B1: rHJ5Nag (Microbacterium sp. HJ5) (protein)
chain: GCSPAAQNGDTVPLPAVVPAPAAIEQATGAPFRLDASTRIEGEADAASALSALLEARTGLAPATGGDGAVIALRIEGGGPAESYALTADEASVTVTGADAAGLFYGVQTLGQLLARDGDAWVVPAVSIEDAPRFAYRGVMLDVARHFHPVETVKAYIGHAASLKLNALHLHLSDDQGWRIELHSRPELTALASSTAVGGDPGGFYTKDDYREIVEYAASRHMIVVPEIDMPSHTHAIGLAYPELAEEPVITDPMRETAAATGGALPESGTPYLGIEVGFSSLKIHDEATYDFAADVFGELAGMTPGPYLHLGGDEAHGTAEEDFALFVSRVSTIIADLGKTPVAWHEAGDAGGLAGATVGQYWGYVTPTDGMDDRARGFVSNGGQLILSPADAIYLDMKYPTGPDLGLSWANGPTSVQRAYDWEPSTVIPGIDDADILGVEAPLWSETLRSLDDIETMAFPRIAAAAEAAWSPATGASDLRTWESFRARVGALGPLWTSLGIGFHPSGEIDWATE
notes: pEASY-E2 in E. coli BL21 (DE3), purified on Ni-NTA
For orientation: Km means the concentration of substrate that gives half-maximal velocity. The term kcat denotes the number of substrate molecules converted per active site and unit of time at saturation. Regarding B1, in series [1], the Km amounted to 520 ± 50 µM and the kcat worked out at 2886 ± 116 s⁻¹.
